Measured values as given in the nanobody polyreactivity screen of Harvey et al. (2022).

Experiment: yeast display, Sf9 membrane polyspecificity reagent, FACS + sequencing; frameworks hold sequencing errors
Procedure, shortened: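 Using colony PCR, genes from sorted yeast display clones were amplified, then sequenced on MiSeq at 2 × 250 and filtered by CDR length. The clones had been stained with 10% biotinylated, detergent-solubilized Sf9 membrane reagent for 1 hour at 4 °C and sorted by FACS into low and high (top ~1%) gates on anti-HA and streptavidin fluorescence. Polyreactivity labels come from the gate of origin.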

Sequence | polyreactivity (PSR sort gate)
QVQLVESGGGLVQAGGSLRLSCAASGRTFGYTMGWYRQAPGKERELVAAITRSVTTYYADSVKGRFTISRDNAKNTVYLQMNSLKPEDTAVYYCAARPKYPYGRFGYYWGQGTQVTVSS | high polyreactivity
QVQLVESGGGLVQAGGSLRLSCAASGRTFGYYAMGWYRPAPGKERELVAAITRTGGSTHYADSVKGRFTISRDNAKNTVYLQMNSLKPEDTAVYYCAVDYHQAWPSADYWFEYDYWGQGTQVTVSS | low polyreactivity
QVQLVESGGGLVQAGGSLRLSCAASGRTFGYYAMGWYRQAPGKEREFVAAISSRGGSTRYADSVKGRFTISRDNAKNTVYLQMNSLKPEDTAVYYCNKGYYRHPDESDYGGQGTQVTVSS | high polyreactivity
QVQLVESGGGLVQAGGSLRLSCAASGRTFGYYAMGWYRQAPGKERELVAAINSRGGSTYYADSVKGRFTISRDNAKNTVYLQMNSLKPEDTAVYYCAVVRWRQYIFATYDYWGQGTQVTVSS | high polyreactivity
QVQLVESGGGLVQAGGSLRLSCAASGRTFGYYAMGWYRQAPGKERELVAAISRGGRTNYADSVKGRFTISRDNAKNTVYLQMNSLKPEDTAVYYCAKSGTIPRYTASYSLLDYWGQGTQVTVSS | low polyreactivity
QVQLVESGGGLVQAGGSLRLSCAASGRTFGYYAMGWYRQAPGKERELVAAISSRSSTTYYADSVKGRFTISRDNAKNTVYLQMNSLKTEDNAVYYCNVAYGEWKTFDYWGQGTQVTVSS | high polyreactivity
QVQLVESGGGLVQAGGSLRLSCAASGRTFGYYAMGWYRQAPGKERELVAAISWRGGSTYYADSVKGRFTISRDNAKNTVYLQMNSLKPEDTAVYYCHRAYVYPQGPYPYDYWGQGTQVTVSS | high polyreactivity
QVQLVESGGGLVQAGGSLRLSCAASGRTFGYYAMGWYRQAPGKERELVAAITRTGGSTHYADSVKGRFTISRDNAKNTVYLQKNSLKPEDTAVYYCARDYRYTIPYDYWGQGTQVTVSS | low polyreactivity
QVQLVESGGGLVQAGGSLRLSCAASGRTFGYYAMGWYRQAPGQERELVAAISWSDSGTYYADSVKGRFTISRDNAKNTVYLQMNSLKPEDTAVYYCAKDEPYFVFRDTYDYWGQGTQVTVSS | high polyreactivity
QVQLVESGGGLVQAGGSLRLSCAASGRTFGYYGMGWYRQAPGKERELVASINFSSGSTFYADSVKGRFTISRDNAKNTVYLQMNSLKPEDTAVYYCAARAKAVRTYAYNYWGQGTQVTVSS | low polyreactivity
QVQLVESGGGLVQAGGSLRLSCAASGRTFGYYVMGWYRQAPGKERELVAAISRSGGTTYYADSVKGRFTISRDNAKNTVYLQMNSLKPEDTAVYYCATDSRTGYDYWGQGTQVTVSS | high polyreactivity
QVQLVESGGGLVQAGGSLRLSCAASGRTFHGYAMGWYRQAPGKERELVAAITSSGARTYYADSVKGRFTISRDNAKNTVFLQMNILKPEDSAVYYCAVNWLRGMDWGQGTQVTVSS | high polyreactivity
QVQLVESGGGLVQAGGSLRLSCAASGRTFHLYAIGWSRQAAGKERELVAAINSGGRTNYADSVKGRFTISLDNAKNTVYLQLNSLKPEDTAVYYCAARANPYVLKYYYWGQGSQVTVSS | high polyreactivity
QVQLVESGGGLVQAGGSLRLSCAASGRTFHNYAMGRYRQAPGKERELVAAISRGGNTYYADSVKGRFTISRDNSKNTVYLQMNSLKPEDTAVYYCAKDNHFEAYRYDYWGQGTQVTVSS | high polyreactivity
QVQLVESGGGLVQAGGSLRLSCAASGRTFHRNAMGWYRQAPGKERELVAAITGDGRTNYADSVKGRFTISRDNAKNTVYLQMNSLKPEDTAVYYCNRDNDYYRPGGRPVGIFDYWGQGTQVTVSS | low polyreactivity
QVQLVESGGGLVQAGGSLRLSCAASGRTFHRYAMGWYRPAPGKERELVAAISRGGITYYADSVKGRFTISRDNAKNTVYLQMNSLKPEDTAVYFCAALYRYYHESSPFDYWGQGTQVTVSS | high polyreactivity
QVQLVESGGGLVQAGGSLRLSCAASGRTFHRYAMGWYRQAPVKEREVLAAITSSGGSTNYADSVKVRFTISRDNAKNTVYVQMNSLQPEDTAVYYCATDRYRYTSHPWSRGFDYWGQGTQVTVSS | low polyreactivity
QVQLVESGGGLVQAGGSLRLSCAASGRTFHSYAMGWYRQAPGKERELVAAIRGRGGTTYYADSVKGRFTFSRDNAKNTVYLQMNSLKPEDTAVYYCNAVVRRYFTAAATYDYWGQGTQVTVSS | high polyreactivity
QVQLVESGGGLVQAGGSLRLSCAASGRTFHVYAMGWYRQAPGKEREFVAFISRRGGSTYYADSVKGRFTISRDNAKNTVYLQMNSLKPEDTAVYYCKARYVTSRSAYQRGGDYWGQGTQVTVSS | high polyreactivity
QVQLVESGGGLVQAGGSLRLSCAASGRTFHWYAMGGYRQAPGKERELVAAIRYSAGSTYYADSVKGRFTISRDNAKNTVYLQMNSLKPEDTAVYYCAAEPYPYGPYYLLWLRYDYWGQGTQVTVSS | low polyreactivity
QVQLVESGGGLVQAGGSLRLSCAASGRTFIANAMGWYRKAPRKERELLAVITLNGGSTYYADSVKGRFTISRDNAKKTVYLQMNSLKPEDTAVYYCNARYYPLYSKSYDSWGQGTQVPVSS | low polyreactivity
QVQLVESGGGLVQAGGSLRLSCAASGRTFIFYAMGWYRQAPGKERELVAAITYSGTSTYYADSVKGRFTISRDNAKNTVYLQMNSLKPEDTAVYYCAKDGQRDANYYWGQGTQVTVSS | low polyreactivity

Sequence | polyreactivity (PSR sort gate)
QVQLVESGGGLVQAGGSLRLSCAASGRTFIGYAMGWYRQAPGKERELVAAISSSGGRTYYADSVKGRFTISRDNAKNTVYLQMNSLKPEDTAVYYCATGSWARDYYYWGQGTQVTVSS | high polyreactivity
QVQLVESGGGLVQAGGSLRLSCAASGRTFIHYAMVWYRQAPGKERELVAAISRRGGSTYYADSVKGRFTISRDNAKNTVYLQMNSLKPEDTAVYYCAKATTTREPKYGYWGQGTQVTVSS | high polyreactivity
QVQLVESGGGLVQAGGSLRLSCAASGRTFIKYAMGWYRPAPGKERELVAAITHRGTNTYYADSVKGRFTISRDNAKYTVYLQMNSLKPEDTAVYYCAAAAPSYPSYDYWGQGTQVTVSS | low polyreactivity
QVQLVESGGGLVQAGGSLRLSCAASGRTFIWYAMGWYRQAPGKEREFVAAIRSSGGRTYYADSVKGRFTISRDNAKNTVYLQMNSLKPEDTAVYYCAKEAYYGWYWYGYWGQGTQVTVSS | high polyreactivity
QVQLVESGGGLVQAGGSLRLSCAASGRTFIWYVMGWYRQAPGKERELVASISTNGGNTYYADSVKGRFTISRDNAKNTVYLQMNSLKPEDTAVFYCAVDGVDAYYIAYYYWGQGTQVTVSS | high polyreactivity
QVQLVESGGGLVQAGGSLRLSCAASGRTFIYYAMGWYRQAPGKERELVAGISRNGGRTYYADSVKGRFTISRDNAKNTVYLQMNSLKPEDTAVYYCNAYPPSRHDYWGQGTQVTVSS | high polyreactivity
QVQLVESGGGLVQAGGSLRLSCAASGRTFKAYAMGWYRQAPGKEREFVAAITKRGGSTYYADSVKGRFTISRDNAKNTVYLQMNSLKPEDTAVYYCAVGLGRYTHTSVPIPSYDYWGQGTQVTVSS | high polyreactivity
QVQLVESGGGLVQAGGSLRLSCAASGRTFKCYAMGWYRQAPGKETELVAAISYRGGSTYYADSVKGRFTISRDNAKNTVYLQIKRLKPEDTAVYYCAARWNRGRYDYWGQGTQVTESS | high polyreactivity
QVQLVESGGGLVQAGGSLRLSCAASGRTFKENAMGWYRQAPGKERELVAVINSGGRTYYADSVKGRFTISRDNAKNTVYLQMNSLKPEDTAVYYCAAYSRSKESGYWGQGTQVTVSS | high polyreactivity
QVQLVESGGGLVQAGGSLRLSCAASGRTFKFYAMGWYRQAPGKERELVATITSGGSTYYADSVKGRFTISRDNAKNTVYLQMNSLKPEDTAVYYCNKRYRKPGSGWYDSWGQGTQVTVSS | high polyreactivity
QVQLVESGGGLVQAGGSLRLSCAASGRTFKGYAMGWYRQAPGKERELVAAISYRGGSTYYADSVKGRFTISRDNAKNTVYLQMNSLKPEDTAVYYCAARWNRGRYDYWGQGTQVTVSS | high polyreactivity
QVQLVESGGGLVQAGGSLRLSCAASGRTFKGYAMGWYRQAPGKERELVAGISTGGNTNYADSVMGRFTISRDNAKNTVYLQMNSLKPEDTAVYYCNAVYRGFTHYTGYEYWGQGTQVTVSS | high polyreactivity
QVQLVESGGGLVQAGGSLRLSCAASGRTFKGYAMGWYSQAPGKDRELVAAISYRGGSTYYADSVKGRFTISRDNAKNTGYLQMNILKPEDTAFYYCAARWNRGRYDYWGQGTQVTVSS | high polyreactivity
QVQLVESGGGLVQAGGSLRLSCAASGRTFKHYAMGGYRQAPGKERELVAAITSGGSTYYADSVKGRFTISRDNAKNTVYLQMNSLKPEDTAVYYCNKESYFDTYRRYDSWGQGTQVTVSS | low polyreactivity
QVQLVESGGGLVQAGGSLRLSCAASGRTFKIYAMGWYRQAPGKEREFVASINWSGGITYYADSVKGRFTISRDNAKNTVYLQMNSLKPEDTAVYYCAARIDSSRIGKRFYYWGQGTQVTVSS | high polyreactivity
QVQLVESGGGLVQAGGSLRLSCAASGRTFKKYALGWYRQAPGKEREVVAAITSRVRSTSYADSVKGRFTISRDNAKNTVYLQMNSLIPEDTAVYYCAARYSVGNGYGYWGQVTQVTVSS | high polyreactivity
QVQLVESGGGLVQAGGSLRLSCAASGRTFKKYAMGWYRQAPGKERELVAAIRRSGGSTYYADSVKGRFTISRDNAKNTVYLQMNSLKPEDTAVYYCAADFRVGRYDYWGQGTQVTVSS | high polyreactivity
QVQLVESGGGLVQAGGSLRLSCAASGRTFKKYAMGWYRQAPGKERELVAAITSRVGSTSYADSVKGRFTISRDNAKNTVYLQMNSLKPEDTAVYYCAARYSVGTGYGYWGQGTQVTVSS | high polyreactivity
QVQLVESGGGLVQAGGSLRLSCAASGRTFKKYAMGWYRQAPGTERELVAAFTGSGGSTYYADSVKGRFTISRDNAKNTVYLKMNSLKPEDTAVYYCAAYAYGVWHSQDGGNYWGQGTQVTVSS | low polyreactivity
QVQLVESGGGLVQAGGSLRLSCAASGRTFKKYTMGWYRQAPGKERELVAVITSGGSTYYADSVKGRFTISRDNAKNTVYLQMNSLKPEDTAVYYCATKASYKGDYWGQGTQVTVSS | high polyreactivity
QVQLVESGGGLVQAGGSLRLSCAASGRTFKLYAMGWYRQAPGKESELVAAISRSGGSTYYADSVKGRFTISRDNAKNTVYLQMKSLKPEDTAVYYCNRRQGYHGDYDYWGQGTQVTVSS | high polyreactivity
